In publication PMC8117158:

Assays:
[1] = molecular target: IscU^N–GFP (E. coli K-12) (UniProt P0ACD4); assay: split reporter (BiFC, NanoBiT); BiFC by reconstitution of GFP from N-GFP and C-GFP fusions co-expressed in E. coli BL21(DE3) Gold; fluorescence microscopy of cells on agarose slides, normalised to empty vectors
[2] = molecular target: IscS^C–GFP (E. coli K-12) (UniProt P0A6B7); assay: as above
UniProt P0A6B7, sequence (P0A6B7 whole entry): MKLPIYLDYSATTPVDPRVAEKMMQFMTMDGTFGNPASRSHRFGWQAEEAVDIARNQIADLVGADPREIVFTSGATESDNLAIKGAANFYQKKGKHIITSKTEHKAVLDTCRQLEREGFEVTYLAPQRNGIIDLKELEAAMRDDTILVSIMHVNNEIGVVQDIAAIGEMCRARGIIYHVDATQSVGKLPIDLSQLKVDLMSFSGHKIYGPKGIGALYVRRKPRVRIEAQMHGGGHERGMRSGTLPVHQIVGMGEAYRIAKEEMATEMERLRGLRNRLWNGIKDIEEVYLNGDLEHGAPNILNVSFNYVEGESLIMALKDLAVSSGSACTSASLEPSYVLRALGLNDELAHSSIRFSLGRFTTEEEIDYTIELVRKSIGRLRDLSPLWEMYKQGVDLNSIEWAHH

UniProt P0ACD4, sequence (P0ACD4 whole entry, the tested form may be a part): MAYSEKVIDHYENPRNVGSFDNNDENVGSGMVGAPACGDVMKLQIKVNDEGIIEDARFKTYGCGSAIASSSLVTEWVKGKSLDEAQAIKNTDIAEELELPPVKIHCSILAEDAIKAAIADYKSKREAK

Substance | fold fluorescence over the control [1] [fold] | fold fluorescence over the control [2] [fold]
YtfE^C–GFP (from UniProt P69506 1-220) (natural protein) | 3 | –
YtfE^N–GFP (from UniProt P69506 1-220) (natural protein) | – | 6
